The results in this text go back to patent publication US20240207432A1 (BIOSION, published 2024).

The target in assay [1] is T1, human TROP2-his protein (human, UniProt P09758 27-274).
T1 construct: Biotin-labelled in the ELISAs, unlabelled analyte in Biacore; also called biotin-labeled human TROP2-his protein; biotin human Trop2-his
T1 sequence: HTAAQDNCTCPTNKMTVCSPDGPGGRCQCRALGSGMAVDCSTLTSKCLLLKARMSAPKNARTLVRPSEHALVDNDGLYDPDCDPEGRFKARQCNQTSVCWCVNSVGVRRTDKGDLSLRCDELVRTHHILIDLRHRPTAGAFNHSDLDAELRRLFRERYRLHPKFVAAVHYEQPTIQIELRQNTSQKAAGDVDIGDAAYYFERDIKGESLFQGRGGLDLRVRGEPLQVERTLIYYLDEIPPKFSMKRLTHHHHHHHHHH
As to the kind of experiment: capture ELISA, captured antibody, biotin human TROP2-his in solution, OD(450-630). As to the method: Plates were washed once with wash buffer (PBS+0.05% v/v Tween-20, PBST) and then blocked with 200 μl/well blocking buffer (5% w/v non-fatty milk in PBST) for 2 hours at 37° C. […] Plates containing captured anti-TROP2 antibodies were incubated with biotin-labeled human TROP2-his protein (prepared in house, SEQ ID NO: 67, 56.7 ng/mL in 2.5% w/v non-fatty milk in PBST, 100 μl/well) for 40 minutes at 37° C., washed 4 times, and incubated with streptavidin conjugated HRP (1:10000 dilution in PBST, Jackson Immuno Research, Cat #016-030-084, 100 μl/well) for 40 minutes at 37° C. After a final wash, plates were incubated with 100 μl/well ELISA substrate TMB (Innoreagents, Cat #TMB-S-002) at room temperature. The reaction was stopped in 3-10 minutes at room temperature with 50 μl/well 1M H₂SO₄, and the absorbance of each well was read on a microplate reader using dual wavelength mode with 450 nm for TMB and 630 nm as the reference wavelength. The OD (450-630) values were plotted against antibody concentration. Data was analyzed using Graphpad Prism software and EC₅₀ values were reported.

Assay [2] deals with T1, human TROP2-his protein. As to the kind of experiment: competitive ELISA: BM1 coated at 1 ug/mL, antibody premixed with biotin human TROP2-his; blocked: binding of TROP2-his to coated BM1; partial only: OD drops from about 1.45 to a plateau of about 0.8. As to the method:
(§1) The mouse anti-TROP2 antibodies were tested for epitope binding in a competitive ELISA assay. […] ELISA plates were washed once with wash buffer (PBS+0.05% v/v Tween-20, PBST) and then blocked with 200 μl blocking buffer (5% w/v non-fatty milk in PBST) for 2 hours at 37° C. While blocking, the anti-TROP2 antibodies or controls were diluted with biotin labeled human TROP2-his protein (SEQ ID NO: 67, 34 ng/mL in 2.5% wA non-fatty milk in PBST), starting at 80 nM with a 5-fold serial dilution, and incubated at room temperature for 40 minutes. After plate washing for 4 times, the antibody/TROP2-his protein mixtures were added to the antibody coated plates, 100 μl per well. After incubation at 37° C. for 40 minutes, plates were washed 4 times again using wash buffer. Then the plates were added and incubated with 100 μl Peroxidase Streptavidin (1:10000 dilution in PBST buffer. Jackson Immunoresearch, Cat #016-030-084) for 40 minutes at 37° C. Plates were washed again using wash buffer. Finally, TMB was added and the reaction was stopped using 1M H₂SO₄. The absorbance of each well was read on a microplate reader using dual wavelength mode with 450 nm for TMB and 630 nm as the reference wavelength, and the OD (450-630) values were plotted against antibody concentration. Data was analyzed using Graphpad Prism software and IC₅₀ values were reported.
Background: An ELISA detects its analyte on a solid surface through an enzyme-linked reagent.

The target in assay [3] is T1, human TROP2-his protein. As to the kind of experiment: competitive ELISA: mouse A1E4F7D4 coated at 2 ug/mL, antibody premixed with biotin human TROP2-his; blocked: binding of TROP2-his to coated A1E4F7D4. As to the method: as §1
Assay [4] concerns the target T1, human TROP2-his protein. Put plainly: competitive ELISA: mouse A1E11A12D1 coated at 2 ug/mL, antibody premixed with biotin human TROP2-his; blocked: binding of TROP2-his to coated A1E11A12D1 (self-competition). As to the method: as §1
The target of assay [5] is T1, human TROP2-his protein. Put plainly: competitive ELISA: mouse A1E11A12D1 coated at 2 ug/mL, antibody premixed with biotin human TROP2-his; blocked: binding of TROP2-his to coated A1E11A12D1; no lower plateau reached at 80 nM. As to the method: as §1
Assay [6] deals with T1, human TROP2-his protein. As to the kind of experiment: competitive ELISA: mouse A1E4F7D4 coated at 2 ug/mL, antibody premixed with biotin human TROP2-his; blocked: binding of TROP2-his to coated A1E4F7D4; no lower plateau reached at 80 nM. As to the method:
as §1

The target of assay [7] is T1, human TROP2-his protein. As to the kind of experiment: SPR Biacore T200, supernatant antibody captured on anti-human IgG CM5 chip, 40 nM human TROP2-his. As to the method:
The goat anti-human IgG (GE healthcare, Cat #BR100839, Human Antibody Capture Kit) was covalently linked to a CM5 chip instead of goat anti-mouse IgG. […] The human TROP2-his protein at the concentration of 40 nM was used instead of serially diluted human TROP2-his protein.
A general note: Surface plasmon resonance follows binding to a sensor surface in real time, without labels.

Assay [8] deals with T1, human TROP2-his protein. As to the kind of experiment: SPR Biacore, human TROP2-his analyte.
For assay [9], the target named is T2, full length human TROP2 on 293F-TROP2 cells (human, UniProt P09758 27-323).
T2 construct: also called 293F-TROP2 cells (clone ID #3A8); cell surface TROP2
T2 sequence: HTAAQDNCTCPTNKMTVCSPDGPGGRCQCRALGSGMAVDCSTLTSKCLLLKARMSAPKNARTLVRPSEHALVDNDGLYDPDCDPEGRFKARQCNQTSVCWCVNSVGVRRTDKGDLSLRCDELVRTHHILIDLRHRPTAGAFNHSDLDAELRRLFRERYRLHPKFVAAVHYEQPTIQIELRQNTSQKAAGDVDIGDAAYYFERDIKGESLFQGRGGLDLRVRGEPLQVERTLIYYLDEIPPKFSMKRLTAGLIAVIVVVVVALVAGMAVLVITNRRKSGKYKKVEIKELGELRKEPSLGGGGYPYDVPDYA
Put plainly: FACS on 293F-TROP2 cells, MFI.

Residue numbers refer to the chain shown, from its start.

B1: benchmark (in house prepared sacituzumab) (antibody, human IgG1, kappa, V domains shown)
VH: SVQLQQSGSELKKPGASVKVSCKASGYTFTNYGMNWVKQAPGQGLKWMGWINTYTGEPTYTDDFKGRFAFSLDTSVSTAYLQISSLKADDTAVYFCARGGFGSSYWYFDVWGQGSLVTVSS
VL: DIQLTQSPSSLSASVGDRVSITCKASQDVSIAVAWYQQKPGKAPKLLIYSASYRYTGVPDRFSGSGSGTDFTLTISSLQPEDFAVYYCQQHYITPLTFGAGTKVEIKR
notes: also called BM; BM1
As a reminder, the EC50 is the concentration needed to bring the measured effect to its halfway point. High values mean weaker potency, low ones greater potency. With B1, in assay [1], the EC50 is 0.141 nM.

B2: mouse antibody C1B3B12D2 (antibody, V domains shown)
VH: QVQLQQSGPELVRPGTSVKMSCKAAGYTFTKFWIGWVKQRPGHGLEWIGNIYPGGAYINYNENFKGKATLTADTFSSTAYMQLNSLTSADSAIYYCAREGSSGYWGQGTTLTVSS
VL: DIVMTQSPSSLTVTAGEKVTLSCKCSQSLLNSGTQENYLTWYQQKPGQPPKMLIYWASIREPGVPDRFTGSGSGTDFTLTINNVQAEDLAVYYCQHDYSYPFTFGSGTKLEIK
notes: Mouse monoclonal IgG purified from hybridoma supernatant
For orientation: IC50 means the concentration that gives 50% inhibition. A higher IC50 goes with weaker potency in that assay. B2: the IC50 in [2] was about 0.6 nM.

B3: mouse antibody A1E11A12D1 (antibody, V domains shown)
VH: QVQLQQSGAELARPGASVKLSCMASGYTFTTYGISWVRQRTGQGLEWIGQIYPGSDYSYCDEDFKGKATLTADKSSSTAYMQLSSLTSEDSAVYFCARASYFDYWGQGTTLTVSS
VL: DILLTQSPAILSVSPGERVSFSCRASQTIGTAIHWYQQRANGSPRLLIKYASESISGIPSRFSGSGSGTDFALSINTVESEDFAYYYCQQSNNWPFTFGGGTKLEIR
notes: as for B2
With B3, the IC50 in assay [3] stood at 0.102 nM; in assay [4], 1 nM.

B4: mouse antibody A1H3C5H8E12 (antibody, V domains shown)
VH: QVQLQQSGAELVRPGTSVKMSCKAAGYTFTNYWIDWVKQRPGHGLEWIGNIFPGGFYTNYNEKFKGKATLTADTSSSTAYMQLSSLTSEDSAIYYCARGGVFDYWGQGTTLTVSS
VL: B3 VL with T28S, A32S, A40T, A72T, T77S, F83I, Y85D, N93S, F96Y, R107K
notes: as for B2
For B4, the IC50 in [5] is 9.92 nM; in assay [6] it was 4.09 nM.

B5: huA1E4F7D4-V16 (antibody, human IgG1, kappa, V domains shown)
VH: QVQLVQSGAEVKKPGASVKVSCKASGYSFTTHWIHWVRQAPGQGLEWIGTIFPSNAYAVYNQKFRDRATMTADTSISTAYIELSRLRSDDTAVYYCARASYFDYWGQGTTVTVSS
VL: EIVLTQSPATLSLSPGERATLSCRASQNIGTSIHWFQQKPGGAPRLLIKYASESISGIPSRFSGSGSGTDFTLTISSLEPEDFAVYYCQHSHSWPFTFGQGTKLEIKR
notes: Positions of the X residues are given in the claims; also called humanized antibody huA1E4F7D4-V16
By Kd is commonly meant the concentration at which binding is half-saturated. In general, koff refers to the first-order rate constant of dissociation. A higher koff goes with a short-lived complex. A word on the kon: it is the rate constant with which the complex forms. Read a high kon as fast association. B5: in assay [7], the affinity, expressed as Kd, was 0.137 nM; the koff was 0.000175 s⁻¹; the kon was 1.28e+06 M⁻¹ s⁻¹. In assay [8], this molecule registered a Kd of 0.196 nM, a koff of 7.92e-05 s⁻¹ and a kon of 404000 M⁻¹ s⁻¹. The same molecule showed an EC50 in assay [9] of 0.362 nM.
